Test results from patent publication US11491212.

B1: FIXa I251S/R318Y/R338E/R403E/E410N (protein)
chain 1: not shown
chain 2: not shown
B2: FIXa Y155F/K247N/N249S/R318Y/R338E/R403E/E410N (protein)
chain 1: not shown
chain 2: not shown
B3: FIXa A103N/N105S/K247N/N249S/R318Y/R338E/R403E/E410N (protein)
chain 1: not shown
chain 2: not shown
B4: FIXa Y259F/K265T/Y345T (protein)
chain 1: not shown
chain 2: not shown
B5: FIXa I251S/R318Y/R338E/E410N (protein)
chain 1: not shown
chain 2: not shown
B6: FIXa Y155F/K228N/R318Y/R338E/R403E/E410N (protein)
chain 1: not shown
chain 2: not shown
B7: FIXa D104N/K106S/K247N/N249S/R318Y/R338E/R403E/E410N (protein)
chain 1: not shown
chain 2: not shown
B8: FIXa K247N/N249S/R318Y/R338E/R403E/E410N (protein)
chain 1: not shown
chain 2: not shown
B9: FIXa D85N/K228N/R318Y/R338E/R403E/E410N (protein)
chain 1: not shown
chain 2: not shown
B10: FIXa Y155F/I251S/R318Y/R338E/R403E/E410N (protein)
chain 1: not shown
chain 2: not shown

Molecular target: Factor X (FX), P00742
Sequence (P00742 whole entry, looked up): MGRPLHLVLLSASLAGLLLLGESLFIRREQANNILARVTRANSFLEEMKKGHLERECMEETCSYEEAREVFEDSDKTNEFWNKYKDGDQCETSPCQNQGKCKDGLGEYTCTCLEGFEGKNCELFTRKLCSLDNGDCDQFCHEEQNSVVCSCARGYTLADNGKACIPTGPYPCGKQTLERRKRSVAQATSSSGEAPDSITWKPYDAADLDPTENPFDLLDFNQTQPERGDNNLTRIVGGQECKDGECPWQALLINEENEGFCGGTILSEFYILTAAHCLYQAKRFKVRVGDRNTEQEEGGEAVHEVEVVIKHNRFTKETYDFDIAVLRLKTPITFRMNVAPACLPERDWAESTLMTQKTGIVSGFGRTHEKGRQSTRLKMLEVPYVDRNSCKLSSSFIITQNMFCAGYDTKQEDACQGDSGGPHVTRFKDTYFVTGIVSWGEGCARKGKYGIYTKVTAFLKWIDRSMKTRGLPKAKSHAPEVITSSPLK

B1 and B2 are within 1.5-fold of each other in KM: 0.0334 µM for the first, 0.0391 µM for the second.

B3 and B4 are within 1.5-fold of each other in KM: 0.0397 µM for the first, 0.0309 µM for the second.

Compared with B5, B6 is 3-fold higher in KM: 0.0162 µM for the first, 0.048 µM for the second.

Going from B7 to B8, the KM falls from 0.059 µM to 0.0392 µM (1.5-fold).

B9 and B10 are within 1.5-fold of each other in KM: 0.0393 µM for the first, 0.0433 µM for the second.

B1 and B2 are within 1.5-fold of each other in kcat (Catalytic activity of FIXa variants): 4.8 s⁻¹ for the first, 6.5 s⁻¹ for the second.

Compared with B3, B4 is 2.4-fold lower in kcat (Catalytic activity of FIXa variants): 4.1 s⁻¹ for the first, 1.7 s⁻¹ for the second.

Going from B5 to B6, the kcat (Catalytic activity of FIXa variants) rises from 6.2 s⁻¹ to 9.7 s⁻¹ (1.6-fold).

B7 and B8 are within 1.5-fold of each other in kcat (Catalytic activity of FIXa variants): 5.2 s⁻¹ for the first, 5.8 s⁻¹ for the second.

B9 and B10 are within 1.5-fold of each other in kcat (Catalytic activity of FIXa variants): 6 s⁻¹ for the first, 7.2 s⁻¹ for the second.

First: B2
Second: B3
The kcat/KM of the first is 1.8-fold higher: 1.8e+08 M⁻¹ s⁻¹ for the first, 1e+08 M⁻¹ s⁻¹ for the second.

Compared with B5, B6 is 1.9-fold lower in kcat/KM: 3.8e+08 M⁻¹ s⁻¹ for the first, 2e+08 M⁻¹ s⁻¹ for the second.
